Reference: the supplement of paper PMC7125110
± gives the standard error. Fewer inactive variants are shown than the library holds.

B1: glmS ribozyme (parent)
chain: AUAAAAGCGCCAGAACUACAGAAAUGUAGUUGACGAGGAGGAGGUUUAUCGAAUUUUCGGCGGAUGCCUCCAAA

How the values were obtained:
Settings in all cases: with glucosamine-6-phosphate
glucosamine-6-phosphate [1] = variants of: B1; test: self-cleavage kobs at 40 uM GlcN6P; higher = faster cleavage; RNA array
In short: (§1)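 kcat and KM were obtained from weighted Michaelis–Menten fits across concentrations of kobs values. Those came from one- or two-exponential decay fits to per-tile medians normalised to baseline and to non-cleaving reference variants. The variants were barcoded ribozymes transcribed in situ by E. coli RNA polymerase on sequenced MiSeq chips and tracked through a hybridised Cy3 probe at 37 °C, with 40 μM to 10 mM glucosamine-6-phosphate in HEPES/KCl/Mg(OAc)2 buffer flowed in.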

glucosamine-6-phosphate [2] = variants of: B1; test: self-cleavage kobs at 160 uM GlcN6P; higher = faster cleavage; RNA array
In short: as §1

glucosamine-6-phosphate [3] = variants of: B1; test: self-cleavage kobs at 640 uM GlcN6P; higher = faster cleavage; RNA array
In short: as §1

glucosamine-6-phosphate [4] = variants of: B1; test: self-cleavage kobs at 2500 uM GlcN6P; higher = faster cleavage; RNA array
In short: as §1

glucosamine-6-phosphate [5] = variants of: B1; test: self-cleavage kobs at 10000 uM GlcN6P; higher = faster cleavage; RNA array
In short: as §1

Variant | self-cleavage kobs at 40 uM GlcN6P (glucosamine-6-phosphate [1]) [s⁻¹] | self-cleavage kobs at 160 uM GlcN6P (glucosamine-6-phosphate [2]) [s⁻¹] | self-cleavage kobs at 640 uM GlcN6P (glucosamine-6-phosphate [3]) [s⁻¹] | self-cleavage kobs at 2500 uM GlcN6P (glucosamine-6-phosphate [4]) [s⁻¹] | self-cleavage kobs at 10000 uM GlcN6P (glucosamine-6-phosphate [5]) [s⁻¹]
A33U G43U C50G G51U | < 1e-05 |  |  |  | 
A33U C34A | < 1e-05 | < 1e-05 | < 1e-05 | < 1e-05 | < 1e-05
A12G U46C U49G C70U | < 1e-05 |  |  |  | 3.44e-05 ± 1.4e-05
C16U A36G | < 1e-05 | < 1e-05 | < 1e-05 |  | 
G9C U30A U46C U56A | < 1e-05 |  |  |  | < 1e-05
C10A A14C | < 1e-05 |  | < 1e-05 | < 1e-05 | 
C10U G29U C34A | < 1e-05 |  |  | < 1e-05 | < 1e-05
U31C C34A C68U | < 1e-05 |  |  |  | < 1e-05
G9A C11A G35C A42G | < 1e-05 |  |  |  | < 1e-05
C10U U31C G32C U49A G51U G60C | < 1e-05 |  |  |  | 
C10U G40U | < 1e-05 |  |  |  | < 1e-05
A48C G62A | < 1e-05 | < 1e-05 | < 1e-05 | < 1e-05 | < 1e-05
G59U G62U C71U | < 1e-05 |  |  |  | 
U31A U47G C70U | 0.000179 ± 3.9e-05 | 0.000219 ± 4.3e-05 | 0.000928 ± 0.00014 | 0.000719 ± 0.00018 | 0.00277 ± 0.00063
G44U G66U U69G | < 1e-05 |  |  |  | 
A6U G44C C50A | < 1e-05 |  |  |  | 
C8A G32A G37A | < 1e-05 |  |  |  | 
G51A U55A C58G | < 1e-05 |  |  |  | < 1e-05
C10A C50G | 7.92e-05 ± 1.7e-05 | 0.000235 ± 5.6e-05 | 0.000189 ± 4.1e-05 | 0.000174 ± 3.5e-05 | 6.81e-05 ± 1.2e-05
G32C A36G | < 1e-05 | < 1e-05 | < 1e-05 | < 1e-05 | < 1e-05
C34A U56C A64C | < 1e-05 |  |  |  | 
U31A U45C A48U | < 1e-05 |  | < 1e-05 |  | 
C11G U31A A33U A36C | < 1e-05 |  |  | < 1e-05 | < 1e-05
U54G C68U | 0.000327 ± 2.5e-05 | 0.000869 ± 0.00021 | 0.000824 ± 0.00012 | 0.0036 ± 0.00084 | 0.00395 ± 0.00053
A42C A48C | < 1e-05 |  | < 1e-05 | < 1e-05 | < 1e-05

Variant | self-cleavage kobs at 40 uM GlcN6P (glucosamine-6-phosphate [1]) [s⁻¹] | self-cleavage kobs at 160 uM GlcN6P (glucosamine-6-phosphate [2]) [s⁻¹] | self-cleavage kobs at 640 uM GlcN6P (glucosamine-6-phosphate [3]) [s⁻¹] | self-cleavage kobs at 2500 uM GlcN6P (glucosamine-6-phosphate [4]) [s⁻¹] | self-cleavage kobs at 10000 uM GlcN6P (glucosamine-6-phosphate [5]) [s⁻¹]
G44U A64U | < 1e-05 | < 1e-05 | < 1e-05 | < 1e-05 | < 1e-05
A6U C16U U30C | < 1e-05 |  |  |  | 
G37U G40C | < 1e-05 | < 1e-05 | < 1e-05 | < 1e-05 | < 1e-05
A6G A42U C58U | < 1e-05 |  |  |  | 
G60U G62C A64C | < 1e-05 |  | < 1e-05 |  | 
A14C A64G U65A C70A C71G | < 1e-05 |  |  |  | < 1e-05
G13U U31C A64U | < 1e-05 |  |  |  | 
C11U G37A G66U | < 1e-05 |  |  |  | 
C16U G63C | < 1e-05 |  | < 1e-05 |  | < 1e-05
A33C U47C G59A | < 1e-05 |  |  |  | 
C11A C70G | 2.86e-05 ± 1.2e-05 | 4.84e-05 ± 2e-05 | 0.00013 ± 2.5e-05 | 5.3e-05 ± 1.3e-05 | 3.06e-05 ± 1.1e-05
C34G A52U U55A | < 1e-05 |  |  | < 1e-05 | < 1e-05
A6C G32C C58G | < 1e-05 |  | < 1e-05 | < 1e-05 | 
C8G G29U C71G | < 1e-05 |  |  |  | 
G43A G51U | < 1e-05 | < 1e-05 |  | < 1e-05 | 
U46G G51C | < 1e-05 |  | < 1e-05 |  | < 1e-05
C10A C16A G41U | < 1e-05 |  |  |  | < 1e-05
A6G U30G G35U U45C G59U | < 1e-05 |  |  |  | < 1e-05
U55G G63A | < 1e-05 | < 1e-05 | < 1e-05 | < 1e-05 | < 1e-05
A39G A42C U69G C70A | < 1e-05 |  |  |  | 
A6U C11U G44U | < 1e-05 |  | < 1e-05 | < 1e-05 | < 1e-05
G7C A39G C70U | < 1e-05 |  |  |  | < 1e-05
G44C U55A | < 1e-05 | < 1e-05 | < 1e-05 |  | 
A12C C34G G37U | < 1e-05 |  |  |  | < 1e-05
C34G C50G C68A C70U | 8.07e-05 ± 2.3e-05 |  |  | 0.000366 ± 0.00013 | 5.45e-05 ± 1.1e-05

Variant | self-cleavage kobs at 40 uM GlcN6P (glucosamine-6-phosphate [1]) [s⁻¹] | self-cleavage kobs at 160 uM GlcN6P (glucosamine-6-phosphate [2]) [s⁻¹] | self-cleavage kobs at 640 uM GlcN6P (glucosamine-6-phosphate [3]) [s⁻¹] | self-cleavage kobs at 2500 uM GlcN6P (glucosamine-6-phosphate [4]) [s⁻¹] | self-cleavage kobs at 10000 uM GlcN6P (glucosamine-6-phosphate [5]) [s⁻¹]
G40U A42G G51C A52G C70G | < 1e-05 |  |  | < 1e-05 | < 1e-05
A39U A42G U65A | 4.73e-05 ± 1.7e-05 |  |  |  | 0.00165 ± 0.00027
G7U A53U U57A | < 1e-05 |  |  |  | 
G21U G32A C50G U57G C70G | 0.000174 ± 3.9e-05 |  |  |  | 0.000301 ± 6.1e-05
C10G A15G A64G | < 1e-05 |  |  |  | 
C68A C70A | < 1e-05 |  |  |  | 
A12C A36G | < 1e-05 | < 1e-05 | < 1e-05 | < 1e-05 | < 1e-05
G29U G63C | < 1e-05 |  | < 1e-05 |  | < 1e-05
G51C C58U C68A | < 1e-05 |  |  |  | 
U54C C68U | 0.000265 ± 3.7e-05 | 0.000635 ± 8.4e-05 | 0.000868 ± 0.00023 | 0.00216 ± 0.0005 | 0.0106 ± 0.0023
G13A G41C C61A | < 1e-05 | < 1e-05 | < 1e-05 |  | 
G7A A36C U54G | < 1e-05 |  |  |  | < 1e-05
U47G C70G C71G | 8.97e-05 ± 2.5e-05 |  |  |  | 
A14C G44C C50U U65G | < 1e-05 |  |  |  | 
A15G G60C | < 1e-05 |  |  |  | 
A33U G41A U46C | < 1e-05 |  |  |  | < 1e-05
G9A A52U U65G | < 1e-05 |  |  |  | 
G7U A52C C70U | < 1e-05 |  | < 1e-05 | < 1e-05 | < 1e-05
A6G G38C | < 1e-05 | < 1e-05 | < 1e-05 | < 1e-05 | < 1e-05
A12C A36C A48G C61U C70A | < 1e-05 |  |  |  | 
C8U G40C | < 1e-05 |  | < 1e-05 |  | < 1e-05
C34G A42G U56G C67A | < 1e-05 |  |  |  | < 1e-05
C10U A12C A53C | < 1e-05 |  |  |  | 
A73U | 0.00108 ± 0.00026 |  |  | 0.00477 ± 0.0019 | 0.0245 ± 0.0093
A36G C61A G62U C67A | < 1e-05 |  |  |  | 

Variant | self-cleavage kobs at 40 uM GlcN6P (glucosamine-6-phosphate [1]) [s⁻¹] | self-cleavage kobs at 160 uM GlcN6P (glucosamine-6-phosphate [2]) [s⁻¹] | self-cleavage kobs at 640 uM GlcN6P (glucosamine-6-phosphate [3]) [s⁻¹] | self-cleavage kobs at 2500 uM GlcN6P (glucosamine-6-phosphate [4]) [s⁻¹] | self-cleavage kobs at 10000 uM GlcN6P (glucosamine-6-phosphate [5]) [s⁻¹]
A14U A39C U49A | < 1e-05 |  |  |  | 
A6U G43A G59A G60U | < 1e-05 |  |  |  | 
A14G C67A | 0.000654 ± 7e-05 | 0.00108 ± 0.00017 | 0.00492 ± 0.00077 | 0.00642 ± 0.0014 | 0.0413 ± 0.01
C34A C58U C71U | < 1e-05 |  |  |  | < 1e-05
G9A C11G A52C C68U | < 1e-05 |  |  |  | < 1e-05
G43C C71A | < 1e-05 | < 1e-05 | < 1e-05 | < 1e-05 | 
G9C G44A A52U | < 1e-05 |  |  |  | 
A15U U30G G41U | 0.000122 ± 2.7e-05 |  |  | 0.000705 ± 0.00027 | 0.0015 ± 0.00032
U45A U55A | 0.00151 ± 0.00018 |  | 0.00993 ± 0.0023 | 0.00931 ± 0.0037 | 0.09 ± 0.031
G13U C61U | < 1e-05 | < 1e-05 | < 1e-05 |  | < 1e-05
C11U G60U | < 1e-05 |  | < 1e-05 | < 1e-05 | < 1e-05
G9A A39U G44A U55C | < 1e-05 |  |  |  | < 1e-05
A53G G62A | < 1e-05 |  | < 1e-05 |  | < 1e-05
U54C G63U A64C | < 1e-05 |  |  |  | < 1e-05
C8G | < 1e-05 | < 1e-05 | < 1e-05 | < 1e-05 | < 1e-05
G13A G38U C50G A64G | 6.47e-05 ± 2.4e-05 |  | 0.00011 ± 5.2e-05 |  | 
C11G A48U | < 1e-05 | < 1e-05 | < 1e-05 |  | < 1e-05
G7U G43C | < 1e-05 | < 1e-05 | < 1e-05 |  | 
C8G U56A | < 1e-05 |  | < 1e-05 | < 1e-05 | 
A33C G51C G63C A64U | < 1e-05 | < 1e-05 | < 1e-05 |  | < 1e-05
C10G A52C U56A C71U | < 1e-05 |  |  |  | 
C11U U30C C50U | < 1e-05 |  |  |  | < 1e-05
C34A U45G C68U C71A | < 1e-05 | < 1e-05 |  | < 1e-05 | < 1e-05
G32U G59A | < 1e-05 | < 1e-05 | < 1e-05 |  | 
